Source: patent US20140296500, “Methods and Compositions of Nucleic Acid Ligands for Detection of Clinical Analytes Related to Human Health” (OTC BIOTECHNOLOGIES, LLC, published 2014)

T1: CTx 8-AA peptide (EKAHDGGR) (Homo sapiens, UniProt P02452 P02452:1207-1214)
T1 chain: EKAHDGGR


Experiments:
[1] = molecular target: T2, Recombinant human growth hormone (r-hGH) (Homo sapiens, UniProt P01241 P01241:27-217); assay: ELONA; binds r-hGH better than natural hGH; settings: tags: >95% pure research grade; label: 5'-biotin
Experimental: FIGS. 15A-15D show four examples of aptamers from the SEQ ID NOs 325-526 that bind recombinant human growth hormone (r-hGH; >95% pure research grade) better than the natural form of hGH or somatotropin in ELISA-like assays to help discriminate the artificial form of hGH in potential drug or doping tests for athletes, or to monitor serum levels of exogendus doses of r-hGH administered to children with growth deficits. The ELISA-like assays were conducted with the named aptamers (SEQ ID NOs 336, 338, 343 and 345) instead of antibodies in each case and absorbances were red at 405 nm with an automated microplate reader after a 15 minute development time in the presence of ABTS substrate as is standard in the diagnostics industry.

[2] = molecular target: T2, Recombinant human growth hormone (r-hGH); assay: ELONA; binds r-hGH better than natural hGH; settings: tags: >95% pure research grade; label: 5'-biotin; remark: listed apart in the source
Experimental: FIGS. 16A-16D show four more examples of aptamers (from the SEQ ID NOs 325-526) that bind recombinant human growth hormone (“r-hGH”) better than the natural form of hGH or somatotropin to help discriminate the artificial form in potential drug or doping tests for atheletes and growth-challenged children. The ELISA-like assays were conducted with the named aptamers (SEQ ID NOs 348, 377, 379 and 388) instead of antibodies in each case and absorbances were red at 405 nm with an automated microplate reader after a 15 minute development time in the presence of ABTS substrate as is standard in the diagnostics industry.

[3] = molecular target: T3, CTx peptide (C-telopeptide of human type I bone collagen, 26 AA …) (Homo sapiens, UniProt P02452 P02452:1193-1218); assay: FRET beacon; almost as good as 15-base version, slightly higher background; settings: label: 5'-TYE665, 3'-Iowa Black RQ
Experimental: Cuvettes are gently mixed for 15 to 20 minutes at RT prior to reading their fluorescence in the homogeneous beacon or competitive-displacement FRET assay formats using a spectrofluorometer having gratings to vary the excitation wavelength and emission scanning ability or a stationary, handheld or otherwise portable fluorometer having a more restricted or fixed excitation and emission optical filter set with a range of wavelengths for excitation and emission.
FIGS. 3A-3F show how each of the aptamer beacons derived and defined from FIG. 2 behaved as a function of decreasing CTx peptide concentration (serial two-fold dilutions beginning with 100 micrograms per ml and ending with zero CTx peptide) in 1× binding buffer (1×BB; 0.5 M NaCl, 10 mM Tris-HCl, pH 7.5-7.6, 1 mM MgCl₂). In the figures “h” means hour or O'clock so that 2 h refers to the 2 O'clock loop from FIG. 2, while F means forward-primed and R means reverse-primed by reference to FIG. 2 as well. […] The CTx 2R-2h loop was optimal for FRET-based detection because it gives the greatest spread or separation for various two-fold serial dilutions of the 26-AA CTx peptide beginning at 100 μg/ml. The CTx 2F-10 h loop was also noteworthy, but could not discriminate many of the different CTx concentrations. […]

[4] = molecular target: T3, CTx peptide (C-telopeptide of human …); assay: FRET beacon; LOD 1 ng/ml; 0.5 M NaCl, 10 mM Tris-HCl, 1 mM MgCl2, pH 7.5-7.6, RT; settings: label: 5'-TYE665, 3'-Iowa Black RQ
Experimental: Generally, the aptamer beacons or competitive FRET-aptamer complexes are then diluted to a final concentration of 1-5 μg/ml in 1×BB and equally dispensed to polystyrene or methacrylate cuvettes in which 1 ml of unlabeled target at various concentrations in 1×BB, PBS or diluted blood, plasma, serum, saliva, aspirate or urine has been added already. Cuvettes are gently mixed for 15 to 20 minutes at RT prior to reading their fluorescence in the homogeneous beacon or competitive-displacement FRET assay formats using a spectrofluorometer having gratings to vary the excitation wavelength and emission scanning ability or a stationary, handheld or otherwise portable fluorometer having a more restricted or fixed excitation and emission optical filter set with a range of wavelengths for excitation and emission.
FIGS. 3A-3F show how each of the aptamer beacons derived and defined from FIG. 2 behaved as a function of decreasing CTx peptide concentration (serial two-fold dilutions beginning with 100 micrograms per ml and ending with zero CTx peptide) in 1× binding buffer (1×BB; 0.5 M NaCl, 10 mM Tris-HCl, pH 7.5-7.6, 1 mM MgCl₂). In the figures “h” means hour or O'clock so that 2 h refers to the 2 O'clock loop from FIG. 2, while F means forward-primed and R means reverse-primed by reference to FIG. 2 as well. […]

[5] = molecular target: Bovine serum albumin (BSA) (Bos taurus, UniProt P02769 P02769:25-607); assay: FRET beacon; unexpected cross-reactivity with BSA; settings: label: 5'-TYE665, 3'-Iowa Black RQ
[6] = molecular target: T1, CTx 8-AA peptide (EKAHDGGR); assay: FRET beacon specificity; no response with 8-AA segment; settings: label: 5'-TYE665, 3'-Iowa Black RQ

T2 sequence (P01241 27-217, one chain of several): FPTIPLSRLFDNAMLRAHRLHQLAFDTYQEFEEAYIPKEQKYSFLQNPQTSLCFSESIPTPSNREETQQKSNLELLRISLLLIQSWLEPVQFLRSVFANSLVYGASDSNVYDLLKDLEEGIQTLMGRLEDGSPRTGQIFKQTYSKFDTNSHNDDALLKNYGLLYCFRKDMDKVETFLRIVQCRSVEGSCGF
T3 sequence (P02452 1193-1218, one chain of several): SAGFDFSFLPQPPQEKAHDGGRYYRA
Bovine serum albumin (BSA), sequence (P02769 25-607, one chain of several): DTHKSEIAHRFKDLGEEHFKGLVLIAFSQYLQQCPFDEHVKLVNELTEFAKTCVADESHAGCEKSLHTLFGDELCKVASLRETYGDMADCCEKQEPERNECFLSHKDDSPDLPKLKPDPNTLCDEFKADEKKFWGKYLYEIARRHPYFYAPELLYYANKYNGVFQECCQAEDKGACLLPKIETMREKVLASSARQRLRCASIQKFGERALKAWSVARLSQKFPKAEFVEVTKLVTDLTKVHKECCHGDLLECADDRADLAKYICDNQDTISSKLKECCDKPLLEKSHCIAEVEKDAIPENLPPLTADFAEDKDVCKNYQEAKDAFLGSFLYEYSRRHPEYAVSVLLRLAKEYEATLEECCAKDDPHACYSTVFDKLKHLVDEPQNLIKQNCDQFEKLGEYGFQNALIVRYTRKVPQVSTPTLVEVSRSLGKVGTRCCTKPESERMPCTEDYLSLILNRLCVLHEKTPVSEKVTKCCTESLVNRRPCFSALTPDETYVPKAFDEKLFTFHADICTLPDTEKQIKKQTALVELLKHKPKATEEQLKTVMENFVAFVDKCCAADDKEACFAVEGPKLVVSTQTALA

Binder	binding result [1]	binding result [2]	also measured
hGH aptamer SEQ 345 (ssDNA) DNA: ATACGGGAGCCAACACCAGGTTGGCGTCAAAAGAAATAAGGGATATACATTAGAGAGCAGGTGTGACGGAT	binds		
hGH aptamer SEQ 338 (ssDNA) DNA: ATCCGTCACACCTGCTCTTGGGTGAATCAATTGTTCGTACTCCACGTGATTCTGTGGTGTTGGCTCCCGTAT	binds		
hGH aptamer SEQ 377 (ssDNA) DNA: ATACGGGAGCCAACACCACATGACGGGTGACTAAAAGACGAAATCTCCCAATTAAGAGCAGGTGTGACGGAT		binds	
hGH aptamer SEQ 343 (ssDNA) DNA: ATACGGGAGCCAACACCATAAGCAGAGAACTACAAGACGATCCCATATTCCAAAGAGCAGGTGTGACGGAT	binds		
hGH aptamer SEQ 379 (ssDNA) DNA: ATACGGGAGCCAACACCACCTGAGCGCCGGCAGCACTCACTATTTGTCCCCGCAAGAGCAGGTGTGACGGAT		binds	
GTGGTGTTGGCTC (ssDNA) [CTx 2R-2h 13-base beacon]			binding result [3]: binds
GGTGGTGTTGGCTCC (ssDNA) [CTx 2R-2h 15-base beacon]			binding result [4]: binds; binding result [5]: binds; binding result [6]: no binding
hGH aptamer SEQ 336 (ssDNA) DNA: ATCCGTCACACCTGCTCTGGGGTGTATCCTTTTATGGATCTGCGAGAATAAGTCTGGTGTTGGCTCCCGTAT	binds		
hGH aptamer SEQ 388 (ssDNA) DNA: ATCCGTCACACCTGCTCTAAAACATGGGCCCAATTAGGCGTGATCCAACCCGTCTGGTGTTGGCTCCCGTAT		binds	
hGH aptamer SEQ 348 (ssDNA) DNA: ATCCGTCACACCTGCTCTAGGATTTTTGTTATGTCGGCCACGATGGGGACCCCGTGGTGTTGGCTCCCGTAT		binds	
